Experiments:
SpySwitch [1] = experiment: ITC
SpySwitch [2] = experiment: ITC; pH 7.5

Row | Substance | stoichiometry N (SpySwitch [1]) | Kd (SpySwitch [2])
1 | SpyTag-MBP | 1 | 1100 nM
2 | SpyTag003-MBP | 1 | 1500 nM

— publication PMC9240080
